This test addresses endogenous mouse MuSK on C2C12 myotubes or primary mouse myotubes (mouse) (UniProt Q61006). The test can be described thus: cell-based or functional assay.

Tyrosine phosphorylation of MuSK in myotubes, dose data for one substance are collected here from patent US20020164702A1.

Sequence of UniProt Q61006 (Q61006 22-868): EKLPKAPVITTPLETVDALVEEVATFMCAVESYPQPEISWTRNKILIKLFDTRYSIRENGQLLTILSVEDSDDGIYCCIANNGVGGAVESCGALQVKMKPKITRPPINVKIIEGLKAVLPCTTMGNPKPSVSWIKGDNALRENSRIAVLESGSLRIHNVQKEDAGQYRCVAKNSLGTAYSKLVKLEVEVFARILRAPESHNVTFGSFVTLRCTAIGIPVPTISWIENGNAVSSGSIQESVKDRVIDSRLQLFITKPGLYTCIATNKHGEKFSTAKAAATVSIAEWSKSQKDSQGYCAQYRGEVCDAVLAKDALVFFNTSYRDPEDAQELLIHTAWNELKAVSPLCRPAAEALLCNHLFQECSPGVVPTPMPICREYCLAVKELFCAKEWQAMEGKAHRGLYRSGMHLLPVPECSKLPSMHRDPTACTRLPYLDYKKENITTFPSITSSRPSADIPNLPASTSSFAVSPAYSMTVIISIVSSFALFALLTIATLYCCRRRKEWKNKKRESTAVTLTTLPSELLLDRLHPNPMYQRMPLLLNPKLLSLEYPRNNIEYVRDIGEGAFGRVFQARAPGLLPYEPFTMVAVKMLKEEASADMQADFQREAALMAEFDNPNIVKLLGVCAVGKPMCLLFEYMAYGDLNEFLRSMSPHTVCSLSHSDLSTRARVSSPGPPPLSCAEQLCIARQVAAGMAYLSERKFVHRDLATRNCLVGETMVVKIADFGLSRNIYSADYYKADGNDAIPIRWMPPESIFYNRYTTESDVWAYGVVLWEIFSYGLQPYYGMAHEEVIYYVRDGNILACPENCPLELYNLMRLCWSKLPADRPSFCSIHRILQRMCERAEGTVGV

Substance “agrin (isoform not stated at that place) (ligand)” came in with a tyrosine phosphorylation of MuSK in myotubes, dose of 1 nM.
